One may read the IC50 as the midpoint of a concentration-inhibition curve.

The assay deals with purified rhesus macaque MHC class I molecule Mamu-B*17 with human beta2-microglobulin (rhesus macaque | human). Kind of assay: radioligand binding.

In turn, LTIEAIENYF [VACV-WR peptide 71NP (LTIEAIENYF), ORF L4R] displayed an IC50 of 8.77 µM.

On to SSPLELFML [VACV-WR peptide 51P (SSPLELFML), ORF E9L], for which the IC50 was 11.8 µM.

(Values after paper PMC2765250 (Vaccine, 2009).)
